Data on one protein can be found in publication PMC11229311, “Structural and functional investigation of the DHH/DHHA1 family proteins in Deinococcus radiodurans” (Nucleic Acids Research, 2024).

The term stoichiometry N denotes the number of molecules, sites or subunits per partner or assembly.

This data set concerns the molecule itself. The data set is described as follows: SEC; analytical gel filtration, Superdex 75 10/300 GL, 20 mM Tris pH 8.0, 100 mM NaCl, 1 mM TCEP; 300 ul of 1 mM protein loaded; calibrated with protein standards (6.5-75 kDa). (SEC sorts molecules by how far they enter the pores of the column.)

B1: Deinococcus radiodurans RecJ-like (DrRecJ-like), wild type (enzyme, UniProt Q9RW43 1-338, looked up)
chain: MTAENSATPDYRRNVGAVADALLAHPGPIVVLSHENPDGDALGSVLGLSRALRTLGKTVLAPMTVPHYLSFLPQPGELTAPLESWPQGALAAVLDVDNNDPVRVAGADLTQFDGPVVNVDHHGTNLRRADAGVVDPSKPAAAMMVADVIDALGAPWSEAVATPLMLGLNTDTGNFAFDSVSAETFECAARLRAHGARIGWLNDQMRQNPQSYYLLLREVLGKLEFLHGGRVVQTRVDEEMLARAGATWEQVENYVSMLRNAEGAQLAVMAKDYGDRVKFSLRSRGPVSAQNIAVALGGGGHVPAAGATVISSYAEARARLDAAIEAELARVDAQATAE
notes: RecJ-like protein (DR_0826) of Deinococcus radiodurans, full-length gene, residues 1-338, amplified from genomic DNA; DHH and DHHA1 domains; Tag-free after TEV cleavage of the His-MBP-TEV fusion (vector pET28-HMT); also called DrRecJ-like^wt; DrNrnA; source: E. coli Rossetta (DE3), purified (His-tag column, HiTrap Q, TEV tag removal, Superdex 75); not shown: His6, N-terminal, cleaved; MBP, …
As for B1, the “stoichiometry N” value was 2.
